Measurements: patent publication US10800847
Values belong to the substance of their own block, whether it stands above or below them.

Experiments:
[1] = target: HLA-A*2902 (A29) single antigen on beads (human); assay: Luminex iBeads (#6), IVIg 1:4
[2] = target: HLA-A*3001 (A30) single antigen on beads (human); assay: Luminex iBeads (#6), IVIg 1:4
[3] = target: HLA-A*3101 (A31) single antigen on beads (human); assay: Luminex iBeads (#6), IVIg 1:4
[4] = target: HLA-A*6602 (A66) single antigen on beads (human); assay: Luminex iBeads (#6), IVIg 1:4
HLA-B*0702 (B7) (human) [5] = assay: Luminex iBeads (#6), IVIg diluted 1:4
HLA-B*0801 (B8) (human) [6] = assay: Luminex iBeads (#6), IVIg diluted 1:4
HLA-B*1301 (B13) (human) [7] = assay: Luminex iBeads (#6), IVIg diluted 1:4
HLA-B*1401 (B64) (human) [8] = assay: Luminex iBeads (#6), IVIg diluted 1:4
HLA-B*1402 (B65) (human) [9] = assay: Luminex iBeads (#6), IVIg diluted 1:4
HLA-B*1501 (B62) (human) [10] = assay: Luminex iBeads (#6), IVIg diluted 1:4
HLA-B*1502 (B75) (human) [11] = assay: Luminex iBeads (#6), IVIg diluted 1:4
HLA-B*1503 (B72) (human) [12] = assay: Luminex iBeads (#6), IVIg diluted 1:4
HLA-B*1510 (B71) (human) [13] = assay: Luminex iBeads (#6), IVIg diluted 1:4
HLA-B*1511 (B75) (human) [14] = assay: Luminex iBeads (#6), IVIg diluted 1:4
HLA-B*1513 (B77) (human) = assay: Luminex iBeads (#6), IVIg diluted 1:4
HLA-B*1516 (B63) (human) [15] = assay: Luminex iBeads (#6), IVIg diluted 1:4
HLA-B*1801 (B18) (human) [16] = assay: Luminex iBeads (#6), IVIg diluted 1:4
[17] = target: Serum albumin on negative control beads (HSA/BSA) (human or bovine); assay: Luminex iBeads (#6), IVIg diluted 1:4
HLA-B*0702 (B7) (human) [18] = assay: Luminex regular beads (#7), IVIg diluted 1:4
HLA-B*0801 (B8) (human) [19] = assay: Luminex regular beads (#7), IVIg diluted 1:4
HLA-B*1301 (B13) (human) [20] = assay: Luminex regular beads (#7), IVIg diluted 1:4
HLA-B*1302 (B13) (human) = assay: Luminex regular beads (#7), IVIg diluted 1:4
HLA-B*1401 (B64) (human) [21] = assay: Luminex regular beads (#7), IVIg diluted 1:4
HLA-B*1402 (B65) (human) [22] = assay: Luminex regular beads (#7), IVIg diluted 1:4
HLA-B*1501 (B62) (human) [23] = assay: Luminex regular beads (#7), IVIg diluted 1:4
HLA-B*1502 (B75) (human) [24] = assay: Luminex regular beads (#7), IVIg diluted 1:4
HLA-B*1503 (B72) (human) [25] = assay: Luminex regular beads (#7), IVIg diluted 1:4
HLA-B*1510 (B71) (human) [26] = assay: Luminex regular beads (#7), IVIg diluted 1:4
HLA-B*1511 (B75) (human) [27] = assay: Luminex regular beads (#7), IVIg diluted 1:4
HLA-B*1516 (B63) (human) [28] = assay: Luminex regular beads (#7), IVIg diluted 1:4
HLA-B*1801 (B18) (human) [29] = assay: Luminex regular beads (#7), IVIg diluted 1:4
[30] = target: HLA-A*6802 (A68) single antigen on Luminex beads (human); assay: Luminex single antigen bead assay, iBeads (#6), IVIg 1:4
[31] = target: HLA-A*6901 (A69) single antigen on Luminex beads (human); assay: as above
[32] = target: HLA-A*7401 (A74) single antigen on Luminex beads (human); assay: as above
[33] = target: HLA-A*8001 (A80) single antigen on Luminex beads (human); assay: as above
[34] = target: HLA-A*6802 (A68) single antigen on Luminex beads (human); assay: Luminex single antigen bead assay, iBeads vs regular beads, IVIg 1:4
[35] = target: HLA-A*6901 (A69) single antigen on Luminex beads (human); assay: as above
[36] = target: HLA-A*8001 (A80) single antigen on Luminex beads (human); assay: as above
[37] = target: HLA-B*3901 (B39) single antigen on Luminex beads (human); assay: Luminex single antigen, iBeads (#6), IVIg 1:8
[38] = target: HLA-B*4006 (B61) single antigen on Luminex beads (human); assay: Luminex single antigen, iBeads (#6), IVIg 1:8
[39] = target: HLA-B*4101 (B41) single antigen on Luminex beads (human); assay: Luminex single antigen, iBeads (#6), IVIg 1:8
[40] = target: HLA-B*4601 (B46) single antigen on Luminex beads (human); assay: Luminex single antigen, iBeads (#6), IVIg 1:8
[41] = target: HLA-B*4701 (B47) single antigen on Luminex beads (human); assay: Luminex single antigen, iBeads (#6), IVIg 1:8
[42] = target: Albumin on negative control beads (serum albumin, HSA/BSA) (human or bovine); assay: Luminex, iBead MFI against regular bead MFI, 1:8
[43] = target: HLA-A*0301 (A3) on single antigen beads (human) (UniProt P04439); assay: Luminex, iBead MFI against regular bead MFI, 1:8

MFI [1]: 932 MFI
MFI [2]: 540 MFI
MFI [3]: 295 MFI
MFI [4]: 768 MFI
MFI (HLA-B*0702 (B7) (human) [5]): 436 MFI
MFI (HLA-B*0801 (B8) (human) [6]): 274 MFI
MFI (HLA-B*1301 (B13) (human) [7]): 504 MFI
MFI (HLA-B*1401 (B64) (human) [8]): 206 MFI
MFI (HLA-B*1402 (B65) (human) [9]): 152 MFI
MFI (HLA-B*1501 (B62) (human) [10]): 148 MFI
MFI (HLA-B*1502 (B75) (human) [11]): 245 MFI
MFI (HLA-B*1503 (B72) (human) [12]): 0 MFI
MFI (HLA-B*1510 (B71) (human) [13]): 271 MFI
MFI (HLA-B*1511 (B75) (human) [14]): 552 MFI
MFI (HLA-B*1513 (B77) (human)): 445 MFI
MFI (HLA-B*1516 (B63) (human) [15]): 756 MFI
MFI (HLA-B*1801 (B18) (human) [16]): 114 MFI
MFI [17]: 667 MFI
MFI (HLA-B*0702 (B7) (human) [18]): 309 MFI
MFI (HLA-B*0801 (B8) (human) [19]): 233 MFI
MFI (HLA-B*1301 (B13) (human) [20]): 524 MFI
MFI (HLA-B*1302 (B13) (human)): 476 MFI
MFI (HLA-B*1401 (B64) (human) [21]): 621 MFI
MFI (HLA-B*1402 (B65) (human) [22]): 239 MFI
MFI (HLA-B*1501 (B62) (human) [23]): 0 MFI
MFI (HLA-B*1502 (B75) (human) [24]): 157 MFI
MFI (HLA-B*1503 (B72) (human) [25]): 0 MFI
MFI (HLA-B*1510 (B71) (human) [26]): 240 MFI
MFI (HLA-B*1511 (B75) (human) [27]): 637 MFI
MFI (HLA-B*1516 (B63) (human) [28]): 799 MFI
MFI (HLA-B*1801 (B18) (human) [29]): 0 MFI
MFI [30]: 596 MFI
MFI [31]: 788 MFI
MFI [32]: 316 MFI
MFI [33]: 564 MFI
Difference % (iBead MFI against regular bead MFI) [34]: 31%
Difference % (iBead MFI against regular bead MFI) [35]: 68%
Difference % (iBead MFI against regular bead MFI) [36]: 41%
Substance: IVIg Sandoglobulin (Novartis, Basel, Switzerland) (antibody)

MFI [37]: 0 MFI
MFI [38]: 167 MFI
MFI [39]: 0 MFI
MFI [40]: 526 MFI
MFI [41]: 955 MFI
Difference % (iBead against regular bead) [42]: -29%
Difference % (iBead against regular bead) [43]: -100%
Substance: Octagam (IVIg, Octapharma, Lachen, Switzerland) (antibody)
